According to publication PMC7790537:

Tests used:
[1] = target: recombinant trimeric HA of A/New Caledonia/20/1999 (H1N1) (influenza A virus A/New Caledonia/20/1999 (H1N1)) (UniProt Q6WG00)
[2] = target: recombinant trimeric HA of A/Victoria/210/2009 (H3N2) (influenza A virus A/Victoria/210/2009 (H3N2))

“Fab-deficient (ΔFab) IgA1 monomer (domain or fragment)” gave an HI activity, minimum HI concentration, NC20 virus [1] of over 500 µg/mL, an HI activity, minimum HI concentration, Vic210 virus [2] of 794 µg/mL and an NT activity, minimum virus-neutralizing concentration, Vic210 virus [2] of over 500 µg/mL.
Work on “Fab-deficient (ΔFab) IgA2m2 monomer (domain or fragment)” yielded an HI activity, minimum HI concentration, NC20 virus [1] of over 500 µg/mL, an HI activity, minimum HI concentration, Vic210 virus [2] of 500 µg/mL and an NT activity, minimum virus-neutralizing concentration, Vic210 virus [2] of over 500 µg/mL.
